From patent US20260193348A1 (ANTENGENE BIOLOGICS, published 2026)
Residue numbers refer to the chain shown, from its start. In names and notes the source's numbering stands.

B1: ch40E9 (antibody, V domains shown)
VH: EVQLQLSGPELVKPGASVKMSCKASGYTFSSYVIHWVKQKPGQGLEWIGYINPYNDVIKYNEKFKGKATLTSDKSSSTAYMELSSLTSEDSAVYYCARDSYYSYDGFAYWGQGTLVTVSA
VL: QIVLTQSPAIMSASPGEKVTMTCSASSSVSYMHWYQQKSGTSPKRWIYDTSKLASGVPARFSGSGSGTSYSLTISSMEAEDAATYYCQQWSSNPPTFGGGTKVEIK
notes: also called 40-C12-C10-E9
B2: ATG201-D105R-19B (bispecific antibody, human IgG1, kappa, L234A L235A)
heavy 1: not shown
heavy 2: QVQLQQSGAELVRPGSSVKISCKASGYAFSSYWMNWVKQRPGQGLEWIGQIWPGDGDTNYNGKFKGKATLTADESSSTAYMQLSSLASEDSAVYFCARRETTTVGRYYYAMDYWGQGTTVTVSSASTKGPSVFPLAPSSKSTSGGTAALGCLVKDYFPEPVTVSWNSGALTSGVHTFPAVLQSSGLYSLSSVVTVPSSSLGTQTYICNVNHKPSNTKVDKKVEPKSCGGGGSGGGGSEVQLVQSGAEVKKPGSSVKVSCKASGYTFSSYVIHWVRQAPGQCLEWMGYINPYNDVIKYNEKFKGRVTLTSDKSTSTAYMELSSLRSEDTAVYYCARDSYYSYRGFAYWGQGTLVTVSSGGGGSGGGGSGGGGSGGGGSEIVLTQSPDFQSVTPKEKVTITCSASSSVSYMHWYQQKPDQSPKRLIYDTSKLASGVPSRFSGSGSGTDFTLTINSLEAEDAATYYCQQWSSNPPTFGCGTKVEIKGGGGSGGGGSDKTHTCPPCPAPEAAGGPSVFLFPPKPKDTLMISRTPEVTCVVVDVSHEDPEVKFNWYVDGVEVHNAKTKPREEQYNSTYRVVSVLTVLHQDWLNGKEYKCKVSNKALPAPIEKTISKAKGQPREPQVCTLPPSREEMTKNQVSLSCAVKGFYPSDIAVEWESNGQPENNYKTTPPVLDSDGSFFLVSKLTVDKSRWQQGNVFSCSVMHEALHNHYTQKSLSLSPGK
light: not shown
notes: CD19xCD3 Fab-scFv-Fab: two C19B Fabs, anti-CD3 scFv 40E9-L2H3-D105R.H; L234A/L235A
B3: ATG201-Y101F-19F (bispecific antibody, human IgG1, kappa, L234A L235A)
heavy 1: not shown
heavy 2: EVKLQESGPGLVAPSQSLSVTCTVSGVSLPDYGVSWIRQPPRKGLEWLGVIWGSETTYYNSALKSRLTIIKDNSKSQVFLKMNSLQTDDTAIYYCAKHYYYGGSYAMDYWGQGTSVTVSSASTKGPSVFPLAPSSKSTSGGTAALGCLVKDYFPEPVTVSWNSGALTSGVHTFPAVLQSSGLYSLSSVVTVPSSSLGTQTYICNVNHKPSNTKVDKKVEPKSCGGGGSGGGGSEVQLVQSGAEVKKPGSSVKVSCKASGYTFSSYVIHWVRQAPGQCLEWMGYINPYNDVIKYNEKFKGRVTLTSDKSTSTAYMELSSLRSEDTAVYYCARDSFYSYDGFAYWGQGTLVTVSSGGGGSGGGGSGGGGSGGGGSEIVLTQSPDFQSVTPKEKVTITCSASSSVSYMHWYQQKPDQSPKRLIYDTSKLASGVPSRFSGSGSGTDFTLTINSLEAEDAATYYCQQWSSNPPTFGCGTKVEIKGGGGSGGGGSDKTHTCPPCPAPEAAGGPSVFLFPPKPKDTLMISRTPEVTCVVVDVSHEDPEVKFNWYVDGVEVHNAKTKPREEQYNSTYRVVSVLTVLHQDWLNGKEYKCKVSNKALPAPIEKTISKAKGQPREPQVCTLPPSREEMTKNQVSLSCAVKGFYPSDIAVEWESNGQPENNYKTTPPVLDSDGSFFLVSKLTVDKSRWQQGNVFSCSVMHEALHNHYTQKSLSLSPGK
light: DIQMTQTTSSLSASLGDRVTISCRASQDISKYLNWYQQKPDGTVKLLIYHTSRLHSGVPSRFSGSGSGTDYSLTISNLEQEDIATYFCQQGNTLPYTFGGGTKLEITRTVAAPSVFIFPPSDEQLKSGTASVVCLLNNFYPREAKVQWKVDNALQSGNSQESVTEQDSKDSTYSLSSTLTLSKADYEKHKVYACEVTHQGLSSPVTKSFNRGEC
notes: CD19xCD3 Fab-scFv-Fab: two C19F Fabs, anti-CD3 scFv 40E9-L2H3-Y101F.H; L234A/L235A
B4: ATG201-N55S-19F (bispecific antibody, human IgG1, kappa, L234A L235A)
heavy 1: not shown
heavy 2: B3 heavy 2 with N288S, F334Y
light: B3 light
notes: CD19xCD3 Fab-scFv-Fab: two C19F Fabs, anti-CD3 scFv 40E9-L2H3-N55S.H; L234A/L235A
B5: 40E9-L2H3 (antibody, V domains shown)
VH: EVQLVQSGAEVKKPGSSVKVSCKASGYTFSSYVIHWVRQAPGQCLEWMGYINPYNDVIKYNEKFKGRVTLTSDKSTSTAYMELSSLRSEDTAVYYCARDSYYSYDGFAYWGQGTLVTVSS
VL: EIVLTQSPDFQSVTPKEKVTITCSASSSVSYMHWYQQKPDQSPKRLIYDTSKLASGVPSRFSGSGSGTDFTLTINSLEAEDAATYYCQQWSSNPPTFGCGTKVEIK
notes: also called ch40E9-derived humanized antibody 40E9-L2H3
B6: 40E9-L2H3-N55S.H (antibody, V domains shown)
VH: B5 VH with N55S
VL: B5 VL
notes: also called 40E9-N55S

What was measured:
CD3ε monomer = molecular target: T1, CD3ε monomer (UniProt P07766 23-126); test: ELISA, soluble protein coated at 0.2 or 2 ug/mL
T1 construct: also called nature CD3ε; denatured CD3ε monomer
T1 sequence (P07766 23-126): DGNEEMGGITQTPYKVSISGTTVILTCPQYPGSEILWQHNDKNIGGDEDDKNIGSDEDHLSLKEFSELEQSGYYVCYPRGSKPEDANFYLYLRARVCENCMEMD

[1] = molecular target: T2, CD3 on T cells / Jurkat cells (human, UniProt P07766 23-207; P04234 22-171; P09693 23-182); test: FACS on Jurkat cells expressing CD3
T2 construct: whole, on cells; Native CD3 complex on CD3+ T cells isolated from normal donors or on Jurkat cells; also called human CD3; CD3+ T cells
T2 sequence (P07766 23-207, chain 1 of 3): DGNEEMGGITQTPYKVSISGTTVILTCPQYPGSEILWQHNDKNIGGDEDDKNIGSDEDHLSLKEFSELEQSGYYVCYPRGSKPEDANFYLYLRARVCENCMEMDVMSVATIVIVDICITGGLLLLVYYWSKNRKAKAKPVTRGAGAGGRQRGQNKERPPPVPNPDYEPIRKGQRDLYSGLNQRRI
T2 sequence (P04234 22-171, chain 2 of 3): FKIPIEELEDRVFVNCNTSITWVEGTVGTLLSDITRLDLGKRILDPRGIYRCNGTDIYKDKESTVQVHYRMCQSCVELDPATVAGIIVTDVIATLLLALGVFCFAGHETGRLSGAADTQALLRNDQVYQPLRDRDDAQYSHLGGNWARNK
T2 sequence (P09693 23-182, chain 3 of 3): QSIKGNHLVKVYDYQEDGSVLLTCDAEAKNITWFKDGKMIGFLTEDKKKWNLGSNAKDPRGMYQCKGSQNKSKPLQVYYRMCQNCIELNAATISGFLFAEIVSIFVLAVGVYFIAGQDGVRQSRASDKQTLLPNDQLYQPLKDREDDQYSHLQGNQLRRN

[2] = molecular target: T3, CD19 on NALM6 cells, Raji cells and primary B cells (human, UniProt P15391 20-556); test: FACS on NALM6 cells expressing CD19 (FIG. 45A)
T3 construct: whole, on cells; Endogenous CD19 on human cell lines / donor B cells; also called NALM6 cells expressing CD19; Raji cells expressing CD19
T3 sequence (looked up): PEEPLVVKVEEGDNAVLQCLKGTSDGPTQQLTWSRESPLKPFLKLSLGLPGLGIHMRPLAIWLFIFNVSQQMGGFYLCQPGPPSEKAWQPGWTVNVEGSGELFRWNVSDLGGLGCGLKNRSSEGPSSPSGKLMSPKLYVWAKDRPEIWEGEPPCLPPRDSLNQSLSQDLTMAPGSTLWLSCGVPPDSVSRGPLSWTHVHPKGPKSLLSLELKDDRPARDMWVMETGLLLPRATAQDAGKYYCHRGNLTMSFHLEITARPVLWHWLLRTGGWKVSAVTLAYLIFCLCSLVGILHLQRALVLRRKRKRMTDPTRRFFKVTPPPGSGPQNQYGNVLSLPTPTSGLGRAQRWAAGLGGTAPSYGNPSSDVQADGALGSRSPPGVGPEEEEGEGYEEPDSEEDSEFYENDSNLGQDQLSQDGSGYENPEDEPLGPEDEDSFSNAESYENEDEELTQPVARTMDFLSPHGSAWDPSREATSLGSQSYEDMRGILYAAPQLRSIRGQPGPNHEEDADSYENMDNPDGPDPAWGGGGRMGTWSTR

[3] = molecular target: T3, CD19 on NALM6 cells, Raji cells and …; test: FACS on primary B cells from healthy donors' PBMC (FIG. 45D)
Description: (§1) To evaluate the binding affinity of the generated bispecific antibodies to NALM6 cells, Raji cells, Primary B cells, DoHH2 cells, SU-DHL-1 cells and Jurkat cells, the NALM6 cells expressing CD19, Raji cells expressing CD19, Primary B cells, DoHH2 cells expressing CD20, SU-DHL-1 cells without expressing CD19 or CD20 and Jurkat cells expressing CD3 were stained by the test antibodies and the binding affinity was determined by FACS analysis. Primary B cells were isolated from healthy donors' PBMC by human B cell enrichment Kit (Stemcell #19054). The protocol of FACS analysis is described as follows: [0933] (a) The cells from each cell line above were harvested and centrifuged at 300 g for 5 min, and the supernatant were discarded. […] (b) The cells were washed 2 times with FACS buffer. [0935] (c) Step (a) was repeated. [0936] […] [0937] (e) Step (b) was repeated and the cells were resuspended with 100 μl/well diluted secondary antibody, and incubated at 4° C. for 45 minutes in the dark. [0938] (f) Step (b) was repeated and the cells were resuspended the cells with 150 μl/well FACS buffer and kept in dark for FACS analysis.

[4] = molecular target: T3, CD19 on NALM6 cells, Raji cells and …; test: FACS on Raji cells expressing CD19 (FIG. 45C)
Description: as §1

[5] = molecular target: T3, CD19 on NALM6 cells, Raji cells and …; test: FACS on NALM6 cells expressing CD19, another experiment (FIG. 45B)
Description: as §1

| Binder | binding result (CD3ε monomer) | binding result [1] | EC50 [2] [nM] | EC50 [3] [nM] | EC50 [4] [nM] | EC50 [5] [nM] |
| --- | --- | --- | --- | --- | --- | --- |
| B1 | no binding |  |  |  |  |  |
| B2 |  | binds | 2.9 |  |  |  |
| B3 |  | binds | 4.36 | 0.468 | 1.13 | 0.609 |
| B4 |  | binds | 4.91 | 1.08 | 1.5 | 0.847 |
| B5 | no binding |  |  |  |  |  |
| B6 | no binding |  |  |  |  |  |
